Reference: US20160272683A1 (Novo Nordisk, published 2016)
Numbered stars: 1 amine (or outer) side, 2 acyl side, 3 side chain; on linkers, the order of the positions; unused ones are H or OH. * marks the point of attachment. C20 diacid = O=C(O)CCCCCCCCCCCCCCCCCCC(=O)*; γGlu = O=C(O)[C@H](CCC(=O)[*:2])N[*:1]

T1: human calcitonin receptor (human, UniProt P30988 25-474)
T1 construct: whole, on cells; also called hCT-R; hCTR
T1 sequence (looked up): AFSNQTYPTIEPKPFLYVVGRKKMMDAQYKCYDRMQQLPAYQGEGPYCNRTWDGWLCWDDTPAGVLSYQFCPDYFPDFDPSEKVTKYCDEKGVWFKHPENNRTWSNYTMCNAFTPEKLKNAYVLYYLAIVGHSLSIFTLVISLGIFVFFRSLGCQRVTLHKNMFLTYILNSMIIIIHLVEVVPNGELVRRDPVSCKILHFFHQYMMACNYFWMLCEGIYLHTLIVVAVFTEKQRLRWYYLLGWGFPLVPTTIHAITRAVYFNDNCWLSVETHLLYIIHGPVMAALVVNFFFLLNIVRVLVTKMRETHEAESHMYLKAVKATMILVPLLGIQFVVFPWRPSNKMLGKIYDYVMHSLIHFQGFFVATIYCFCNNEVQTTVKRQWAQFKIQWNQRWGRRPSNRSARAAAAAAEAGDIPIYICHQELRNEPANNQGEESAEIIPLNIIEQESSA

B1: [N-terminal(C20 diacid-gGlu), des1, 23Y, 30S, 31G, 32A]mimylin (peptide)
peptide: {C20 diacid-γGlu}-ASELSTAALGRLSAELHELATYPRTETGSGAP-NH2
SMILES: CC(C)C[C@H](NC(=O)[C@H](C)NC(=O)[C@H](C)NC(=O)[C@@H](NC(=O)[C@H](CO)NC(=O)[C@H](CC(C)C)NC(=O)[C@H](CCC(=O)O)NC(=O)[C@H](CO)NC(=O)[C@H](C)NC(=O)CC[C@H](NC(=O)CCCCCCCCCCCCCCCCCCC(=O)O)C(=O)O)[C@@H](C)O)C(=O)NCC(=O)N[C@@H](CCCNC(=N)N)C(=O)N[C@@H](CC(C)C)C(=O)N[C@@H](CO)C(=O)N[C@@H](C)C(=O)N[C@@H](CCC(=O)O)C(=O)N[C@@H](CC(C)C)C(=O)N[C@@H](Cc1c[nH]cn1)C(=O)N[C@@H](CCC(=O)O)C(=O)N[C@@H](CC(C)C)C(=O)N[C@@H](C)C(=O)N[C@H](C(=O)N[C@@H](Cc1ccc(O)cc1)C(=O)N1CCC[C@H]1C(=O)N[C@@H](CCCNC(=N)N)C(=O)N[C@H](C(=O)N[C@@H](CCC(=O)O)C(=O)N[C@H](C(=O)NCC(=O)N[C@@H](CO)C(=O)NCC(=O)N[C@@H](C)C(=O)N1CCC[C@H]1C(N)=O)[C@@H](C)O)[C@@H](C)O)[C@@H](C)O
notes: also called Ex. #81
B2: [N-terminal(C20 diacid-gGlu), des1, 30S, 31G, 33L]mimylin (peptide)
peptide: {C20 diacid-γGlu}-ASELSTAALGRLSAELHELATLPRTETGSGSL-NH2
SMILES: CC(C)C[C@H](NC(=O)[C@H](CO)NC(=O)CNC(=O)[C@H](CO)NC(=O)CNC(=O)[C@@H](NC(=O)[C@H](CCC(=O)O)NC(=O)[C@@H](NC(=O)[C@H](CCCNC(=N)N)NC(=O)[C@@H]1CCCN1C(=O)[C@H](CC(C)C)NC(=O)[C@@H](NC(=O)[C@H](C)NC(=O)[C@H](CC(C)C)NC(=O)[C@H](CCC(=O)O)NC(=O)[C@H](Cc1c[nH]cn1)NC(=O)[C@H](CC(C)C)NC(=O)[C@H](CCC(=O)O)NC(=O)[C@H](C)NC(=O)[C@H](CO)NC(=O)[C@H](CC(C)C)NC(=O)[C@H](CCCNC(=N)N)NC(=O)CNC(=O)[C@H](CC(C)C)NC(=O)[C@H](C)NC(=O)[C@H](C)NC(=O)[C@@H](NC(=O)[C@H](CO)NC(=O)[C@H](CC(C)C)NC(=O)[C@H](CCC(=O)O)NC(=O)[C@H](CO)NC(=O)[C@H](C)NC(=O)CC[C@H](NC(=O)CCCCCCCCCCCCCCCCCCC(=O)O)C(=O)O)[C@@H](C)O)[C@@H](C)O)[C@@H](C)O)[C@@H](C)O)C(N)=O
notes: also called Ex. #62
B3: [N-terminal(C20 diacid-gGlu), des1, 30S, 31G, 33F]mimylin (peptide)
peptide: {C20 diacid-γGlu}-ASELSTAALGRLSAELHELATLPRTETGSGSF-NH2
SMILES: CC(C)C[C@H](NC(=O)[C@H](C)NC(=O)[C@H](C)NC(=O)[C@@H](NC(=O)[C@H](CO)NC(=O)[C@H](CC(C)C)NC(=O)[C@H](CCC(=O)O)NC(=O)[C@H](CO)NC(=O)[C@H](C)NC(=O)CC[C@H](NC(=O)CCCCCCCCCCCCCCCCCCC(=O)O)C(=O)O)[C@@H](C)O)C(=O)NCC(=O)N[C@@H](CCCNC(=N)N)C(=O)N[C@@H](CC(C)C)C(=O)N[C@@H](CO)C(=O)N[C@@H](C)C(=O)N[C@@H](CCC(=O)O)C(=O)N[C@@H](CC(C)C)C(=O)N[C@@H](Cc1c[nH]cn1)C(=O)N[C@@H](CCC(=O)O)C(=O)N[C@@H](CC(C)C)C(=O)N[C@@H](C)C(=O)N[C@H](C(=O)N[C@@H](CC(C)C)C(=O)N1CCC[C@H]1C(=O)N[C@@H](CCCNC(=N)N)C(=O)N[C@H](C(=O)N[C@@H](CCC(=O)O)C(=O)N[C@H](C(=O)NCC(=O)N[C@@H](CO)C(=O)NCC(=O)N[C@@H](CO)C(=O)N[C@@H](Cc1ccccc1)C(N)=O)[C@@H](C)O)[C@@H](C)O)[C@@H](C)O
notes: also called Ex. #61
B4: [N-terminal(C20 diacid-gGlu), des1, 25H, 30S, 31G]mimylin (peptide)
peptide: {C20 diacid-γGlu}-ASELSTAALGRLSAELHELATLPHTETGSGSP-NH2
SMILES: CC(C)C[C@H](NC(=O)[C@H](C)NC(=O)[C@H](C)NC(=O)[C@@H](NC(=O)[C@H](CO)NC(=O)[C@H](CC(C)C)NC(=O)[C@H](CCC(=O)O)NC(=O)[C@H](CO)NC(=O)[C@H](C)NC(=O)CC[C@H](NC(=O)CCCCCCCCCCCCCCCCCCC(=O)O)C(=O)O)[C@@H](C)O)C(=O)NCC(=O)N[C@@H](CCCNC(=N)N)C(=O)N[C@@H](CC(C)C)C(=O)N[C@@H](CO)C(=O)N[C@@H](C)C(=O)N[C@@H](CCC(=O)O)C(=O)N[C@@H](CC(C)C)C(=O)N[C@@H](Cc1c[nH]cn1)C(=O)N[C@@H](CCC(=O)O)C(=O)N[C@@H](CC(C)C)C(=O)N[C@@H](C)C(=O)N[C@H](C(=O)N[C@@H](CC(C)C)C(=O)N1CCC[C@H]1C(=O)N[C@@H](Cc1c[nH]cn1)C(=O)N[C@H](C(=O)N[C@@H](CCC(=O)O)C(=O)N[C@H](C(=O)NCC(=O)N[C@@H](CO)C(=O)NCC(=O)N[C@@H](CO)C(=O)N1CCC[C@H]1C(N)=O)[C@@H](C)O)[C@@H](C)O)[C@@H](C)O
notes: also called Ex. #73
B5: [N-terminal(C20 diacid-gGlu), des1, 30S, 31G, 33G]mimylin (peptide)
peptide: {C20 diacid-γGlu}-ASELSTAALGRLSAELHELATLPRTETGSGSG-NH2
SMILES: CC(C)C[C@H](NC(=O)[C@H](C)NC(=O)[C@H](C)NC(=O)[C@@H](NC(=O)[C@H](CO)NC(=O)[C@H](CC(C)C)NC(=O)[C@H](CCC(=O)O)NC(=O)[C@H](CO)NC(=O)[C@H](C)NC(=O)CC[C@H](NC(=O)CCCCCCCCCCCCCCCCCCC(=O)O)C(=O)O)[C@@H](C)O)C(=O)NCC(=O)N[C@@H](CCCNC(=N)N)C(=O)N[C@@H](CC(C)C)C(=O)N[C@@H](CO)C(=O)N[C@@H](C)C(=O)N[C@@H](CCC(=O)O)C(=O)N[C@@H](CC(C)C)C(=O)N[C@@H](Cc1c[nH]cn1)C(=O)N[C@@H](CCC(=O)O)C(=O)N[C@@H](CC(C)C)C(=O)N[C@@H](C)C(=O)N[C@H](C(=O)N[C@@H](CC(C)C)C(=O)N1CCC[C@H]1C(=O)N[C@@H](CCCNC(=N)N)C(=O)N[C@H](C(=O)N[C@@H](CCC(=O)O)C(=O)N[C@H](C(=O)NCC(=O)N[C@@H](CO)C(=O)NCC(=O)N[C@@H](CO)C(=O)NCC(N)=O)[C@@H](C)O)[C@@H](C)O)[C@@H](C)O
notes: also called Ex. #64
B6: [N-terminal(C20 diacid-gGlu), des1, 30S, 31G, 33A]mimylin (peptide)
peptide: {C20 diacid-γGlu}-ASELSTAALGRLSAELHELATLPRTETGSGSA-NH2
SMILES: CC(C)C[C@H](NC(=O)[C@H](C)NC(=O)[C@H](C)NC(=O)[C@@H](NC(=O)[C@H](CO)NC(=O)[C@H](CC(C)C)NC(=O)[C@H](CCC(=O)O)NC(=O)[C@H](CO)NC(=O)[C@H](C)NC(=O)CC[C@H](NC(=O)CCCCCCCCCCCCCCCCCCC(=O)O)C(=O)O)[C@@H](C)O)C(=O)NCC(=O)N[C@@H](CCCNC(=N)N)C(=O)N[C@@H](CC(C)C)C(=O)N[C@@H](CO)C(=O)N[C@@H](C)C(=O)N[C@@H](CCC(=O)O)C(=O)N[C@@H](CC(C)C)C(=O)N[C@@H](Cc1c[nH]cn1)C(=O)N[C@@H](CCC(=O)O)C(=O)N[C@@H](CC(C)C)C(=O)N[C@@H](C)C(=O)N[C@H](C(=O)N[C@@H](CC(C)C)C(=O)N1CCC[C@H]1C(=O)N[C@@H](CCCNC(=N)N)C(=O)N[C@H](C(=O)N[C@@H](CCC(=O)O)C(=O)N[C@H](C(=O)NCC(=O)N[C@@H](CO)C(=O)NCC(=O)N[C@@H](CO)C(=O)N[C@@H](C)C(N)=O)[C@@H](C)O)[C@@H](C)O)[C@@H](C)O
notes: also called Ex. #65
B7: [N-terminal(C20 diacid-gGlu), des1, 30S, 31G, 33H]mimylin (peptide)
peptide: {C20 diacid-γGlu}-ASELSTAALGRLSAELHELATLPRTETGSGSH-NH2
SMILES: CC(C)C[C@H](NC(=O)[C@H](C)NC(=O)[C@H](C)NC(=O)[C@@H](NC(=O)[C@H](CO)NC(=O)[C@H](CC(C)C)NC(=O)[C@H](CCC(=O)O)NC(=O)[C@H](CO)NC(=O)[C@H](C)NC(=O)CC[C@H](NC(=O)CCCCCCCCCCCCCCCCCCC(=O)O)C(=O)O)[C@@H](C)O)C(=O)NCC(=O)N[C@@H](CCCNC(=N)N)C(=O)N[C@@H](CC(C)C)C(=O)N[C@@H](CO)C(=O)N[C@@H](C)C(=O)N[C@@H](CCC(=O)O)C(=O)N[C@@H](CC(C)C)C(=O)N[C@@H](Cc1c[nH]cn1)C(=O)N[C@@H](CCC(=O)O)C(=O)N[C@@H](CC(C)C)C(=O)N[C@@H](C)C(=O)N[C@H](C(=O)N[C@@H](CC(C)C)C(=O)N1CCC[C@H]1C(=O)N[C@@H](CCCNC(=N)N)C(=O)N[C@H](C(=O)N[C@@H](CCC(=O)O)C(=O)N[C@H](C(=O)NCC(=O)N[C@@H](CO)C(=O)NCC(=O)N[C@@H](CO)C(=O)N[C@@H](Cc1c[nH]cn1)C(N)=O)[C@@H](C)O)[C@@H](C)O)[C@@H](C)O
notes: also called Ex. #60
B8: [N-terminal(C20 diacid-gGlu), des1, 23Y, 30S, 31G]mimylin (peptide)
peptide: {C20 diacid-γGlu}-ASELSTAALGRLSAELHELATYPRTETGSGSP-NH2
SMILES: CC(C)C[C@H](NC(=O)[C@H](C)NC(=O)[C@H](C)NC(=O)[C@@H](NC(=O)[C@H](CO)NC(=O)[C@H](CC(C)C)NC(=O)[C@H](CCC(=O)O)NC(=O)[C@H](CO)NC(=O)[C@H](C)NC(=O)CC[C@H](NC(=O)CCCCCCCCCCCCCCCCCCC(=O)O)C(=O)O)[C@@H](C)O)C(=O)NCC(=O)N[C@@H](CCCNC(=N)N)C(=O)N[C@@H](CC(C)C)C(=O)N[C@@H](CO)C(=O)N[C@@H](C)C(=O)N[C@@H](CCC(=O)O)C(=O)N[C@@H](CC(C)C)C(=O)N[C@@H](Cc1c[nH]cn1)C(=O)N[C@@H](CCC(=O)O)C(=O)N[C@@H](CC(C)C)C(=O)N[C@@H](C)C(=O)N[C@H](C(=O)N[C@@H](Cc1ccc(O)cc1)C(=O)N1CCC[C@H]1C(=O)N[C@@H](CCCNC(=N)N)C(=O)N[C@H](C(=O)N[C@@H](CCC(=O)O)C(=O)N[C@H](C(=O)NCC(=O)N[C@@H](CO)C(=O)NCC(=O)N[C@@H](CO)C(=O)N1CCC[C@H]1C(N)=O)[C@@H](C)O)[C@@H](C)O)[C@@H](C)O
notes: also called Ex. #56

Target: T1, human calcitonin receptor
Experiment: whole-cell competition vs 125I-human calcitonin (Assay VIIa)
Method in brief: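 BHK tk'ts 13 cells stably co-expressing human calcitonin receptor and a CRE-luciferase reporter, seeded overnight at 37 °C. Bound tracer counted by scintillation after cold HBSS washes and NaOH/SDS lysis; IC₅₀ from one-site competition fit taken as receptor affinity.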

Row | IC50 [nM] | Binder
1 | 4.93 | B1
2 | 2.33 | B2
3 | 24.2 | {C20 diacid-γGlu}-ASELSTAALGRLSAELHELATYPRTETGSGSY-OH (also called Ex. #88) [[N-terminal(C20 diacid-gGlu), des1, 23Y, 30S, 31G, 33Y, C-terminal(-)]mimylin]
4 | 1.76 | B3
5 | 0.442 | B4
6 | 3.63 | B5
7 | 1.25 | B6
8 | 1.53 | B7
9 | 2.94 | B8
